Laboratory results taken from US20230094463A1 (TRUEBINDING, published 2023).

T1: Gal3 Peptide 1 (ADNFSLHDALSGSGNPNPQG) (human)
T1 peptide: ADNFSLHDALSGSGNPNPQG

T2: Gal3 Peptide 7 (AYPGAPGAYPGAPAPGVYPG) (human)
T2 peptide: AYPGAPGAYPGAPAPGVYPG

B1: 20D11.2C6 (antibody, V domains shown)
VH: EVQLQQSGPELVKPGASVKISCKASGYTFTDFYINWVKQSHGKSLEWIGDINPKNGGINYNPKFKIKATLTVDKSSSTSYMDLRGLTSEDSAVYYCTSGYGFPYWGQGTLVTVSA
VL: DIQMNQSPSSLSASLGDTITITCRASQNIYIWLSWYQQKPGNIPKLLIYKASNLHTGVPSRFSGSGSGTDFTLTISTLQPEDIATYFCLQGQSYPLTFGAGTKLEMK
B2: IMT001 (TB001) (antibody, V domains shown)
VH: QVQLVQSGSELKKPGASVKVSCKASGYTFTNYGMNWVRQAPGQGLKWMGWINTNTGEPTYVEEFTGRFVFSLETSVSTAYLQISSLKAEDTAVYFCAPYDNFFAYWGQGTTVTVSS
VL: DIVLTQSPLSLPVTPGEPASISCRSSKSLLYKDGKTYLNWFLQKPGQSPQLLIYLMSTHASGVPDRFSGSGSGTDFTLKISRVEAEDVGVYYCQQLVDYPLTFGGGTKLEIK
notes: anti-Gal3 antibody; also called IMT001-4
B3: 19B5.2E6 (antibody, V domains shown)
VH: QIQLVQSGPELKKPGETVKISCKASGYTFTTYAMSWVKQAPGKGLKWMGWINTYSGVPTYADDLKGRFAFSLETSASTAYLQINNLKNEDTATYFCARGPYAMDYWGQGTSVTVSS
VL: DIQMTQTTSSLSASLGDRVTISCSASQGINNYLNWYQQKPDGTVKLLIYYASSLHSGVPSRFSGSGSGTDYSLTISNLEPEDIATYYCQQYSQVPYTFGSGTKLEIK
B4: 15G7.2A7 (antibody, V domains shown)
VH: EVQLQQSGPELVKPGASVKISCKASGYTFTDYYMNWVKQSHGKSLEWIGDINPNNGGTNYNQKFKGKATLTVDKSSSTAYMELRSLTSEDSAVYYCTSGYGFPYWGQGTLVTVSA
VL: DIQMNQSPSSLSASLGDTISITCRASQNINIWLSWYQQKPGNIPQLLIYKASNLHTGVPSRFSGSGSGTDFTLTISSLQPEDIATYYCLQGQSYPLTFGAGTKLVMK
B5: 13A12.2E5 (antibody, V domains shown)
VH: QIQLVQSGPELKKPGETVKISCKTSGYKFKTYVMSWVKQAPGKALKWMGWINTYSGVPTYADDFKGRFAFSLETSASTAYLEIINLKNEDTATYFCARDGNYGDPMDYWGQGTSVTVSS
VL: DVVMTQTPLTLSVAIGQPASISCKSSQSLLYTNGKTYLNWLLQRPGQSPKRLIYLLSKLDSGVPDRFSASGSGTDFTLKISRVEAEDLGVYYCLQSTHFPLTFGAGTKLEMK
B6: 12G5.D7 (antibody, V domains shown)
VH: QVQLKQSGAELVRPGASVKLSCKASGYTFTDYYINWVKQRPGQGLEWIARIYPGTGNTDYNEKFKGRATLTAEKSSSTAYMQLSSLTSEDSAVYFCARFAYYYGSGGYFDYWGHGTTLTVSS
VL: DILMTQSPSSMSVSLGDTVSITCHASQGINSNMGWLQQKPGKSFKGLIYHATNLEDGVPSRFSGSGSGADYSLTISSLESEDFADYYCVQYAQFPPTFGSGTKLEIK
B7: 14H10.2C9 (antibody, V domains shown)
VH: QIQLVQSGPELKKPGETVKISCKASGYTFTTYGMGWVKQAPGKDLKWMGWINTYSGVPTYADDFKGRFAFSLETSASTAYLQISNLKNEDTATYFCSTPYEYDGAYWGQGTLVTVSA
VL: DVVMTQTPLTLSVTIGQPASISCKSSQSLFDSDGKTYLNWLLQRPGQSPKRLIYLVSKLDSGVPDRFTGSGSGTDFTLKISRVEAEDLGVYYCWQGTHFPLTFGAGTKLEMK
B8: 13G4.2F8 (antibody, V domains shown)
VH: QVQLQQPGAELVKPGASVKLSCKASGYTFTSYWMHWVKQRPGQGLEWIGMIHPNSGSTDYNEKFKNKATLNVDKSSSTAYIQLSSLTSEDSAVYYCTRWGIYYYARDYWGQGTTLTVSS
VL: DIVMTQSQKFMSTSVGERVSITCKASQNVGTNVAWYQQKAGQSLELLIYGASNRHTGVPDRFTGSGSGTDFTLTITNVQSEDMTNYFCEQYSNFPLTFGAGTKLELK
B9: 2D10.2B2 (antibody, V domains shown)
VH: QVQLQQSGPELVKPGASVKISCKASGYTFTDYYINWVKQRPGQGLEWIGWIYPGSNDTKYNEKFKGKATLTVDTSSSTAYMQLGSLTSEDSAVYFCANYFGCSGWFFDVWGTGTTVTVSS
VL: DIVMTQAAFSNPVTLGTSASISCRSSKSLLHSDGITYLYWYLQRPGQSPQLLIYRMSNLASGVPDRFSGSGSGTDFTLRISRVEAEDVGVYYCAQMIEFPLTFGAGTILELK
B10: IMT006 (TB006) (antibody, V domains shown)
VH: QVQLVQSGAEVKKPGASVKVSCKASGYSFTNYYMHWVRQAPGQRLEWMGWIYPGSGNTNYNEKFQGRVTITADTSASTAYMELSSLRSEDTAVYYCSTAPGGFDVWGQGTTVTVSS
VL: DIVMTQTPLSLSVTPGQPASISCKSSKSLLHSDGITYLYWYLQKPGQSPQLLIYRMSNLASGVPDRFSGSGSGTDFTLKISRVEAEDVGVYYCAQMLEFPLTFGQGTKLEIK
notes: anti-Gal3 antibody
B11: F846C.1F5 (antibody, V domains shown)
VH: QIQLVQSGPELKKPGETVKISCKASGYTFTNYGMNWVKQAPGKGLKWMGWINTYTGEPSYADDFKGRFAFSLETSASTAYLQINNLKNEDMATYFCARWGGYDGDYYAMDYWGQGTSVTVSS
VL: NIMMTQSPSSLAVSAGEKVTMSCKSSQSVLYSSNQKNYLAWYQQKPGQSPKLLIYWASTRESGVPDRFTGSGSGTDFTLTISSVQPEDLAVYYCHQYLSSLTFGAGTKLELK
notes: also called 846.1F5

Experiments:
[1] = target: T3, Human GAL3 protein (TrueBinding, QCB200349 / QCB200352; R&D Systems, 8259-GA) (human, UniProt P17931 2-250); assay: blocking ELISA (GAL3 coated; antibody + biotinylated ITGa3)
T3 construct: also called human galectin-3

[2] = target: T3, Human GAL3 protein (TrueBinding, …); assay: cell-based or functional assay
[3] = target: T3, Human GAL3 protein (TrueBinding, …); assay: blocking ELISA (GAL3 coated; antibody + biotinylated ITGb3)
[4] = target: T4, Human Galectin-3 protein (Acro Biosystems, GA3-H5129) (human, UniProt P17931 2-250); assay: blocking ELISA (Gal3 coated; antibody 3 µg/mL + INSR)
T4 construct: Bought protein; also called Gal3-ECD-His; Gal3-His; not shown: linker-spaced 6-histidine tag

[5] = target: T3, Human GAL3 protein (TrueBinding, …); assay: blocking ELISA (GAL3 coated; antibody + biotinylated ITGaV)
[6] = target: T4, Human Galectin-3 protein (Acro …); assay: ELISA, blocking of INSR binding to coated Gal3
[7] = target: T4, Human Galectin-3 protein (Acro …); assay: SPR (Biacore T200), antibody captured, Galectin-3 as analyte
[8] = target: T3, Human GAL3 protein (TrueBinding, …); assay: blocking ELISA (GAL3 coated; antibody + biotinylated ITGb1)
[9] = target: T4, Human Galectin-3 protein (Acro …); assay: ELISA, blocking of INSR binding to coated Gal3; remark: listed apart in the source
[10] = target: T1, Gal3 Peptide 1 (ADNFSLHDALSGSGNPNPQG); assay: peptide ELISA (peptide coated; antibody hIgG4 [S228P], 5 µg/mL)
[11] = target: T2, Gal3 Peptide 7 (AYPGAPGAYPGAPAPGVYPG); assay: as above
[12] = target: T4, Human Galectin-3 protein (Acro …); assay: SPR (Biacore T200; antibody captured via anti-Fc, Galectin-3 analyte, 1:1 fit)

Row | Binder | percent blockade of GAL3-ITGa3 interaction [1] [%] | inhibition of Jurkat T cell adhesion [2] [%] | percent blockade of GAL3-ITGb3 interaction [3] [%] | Gal3-INSR binding remaining, % of unblocked sample [4] [%] | percent blockade of GAL3-ITGaV interaction [5] [%] | Gal3-INSR Blocking @ 3 µg/mL [6] [%] | Kd [7] [nM] | percent blockade of GAL3-ITGb1 interaction [8] [%] | IC50 (read off the curve) [9] [µg/mL] | binding result [10] | binding result [11] | Kd [12] [nM] | reduction of Gal3-INSR binding (%) [4] [%]
1 | B1 | > 90 | > 90 | > 90 | < 5 | > 90 | 100 | 27.8 |  |  |  |  |  | 
2 | B2 | > 90 |  | > 90 |  | > 90 | 100 | 6.09 | > 90 | ~0.8 |  |  |  | 
3 | B3 | > 90 |  | > 90 | < 5 | > 90 | 100 | < 1 |  |  | binds | binds |  | 
4 | B4 |  |  |  |  |  | 100 | 11.3 |  |  |  |  | 27.8 | 
5 | B5 | > 90 |  | > 90 | < 5 |  | 97 | 8.2 |  |  |  |  |  | 
6 | B6 | < 35 |  | < 10 |  | < 30 | 27 | 1.9 |  |  |  |  |  | ≤ 30
7 | B7 | > 90 |  | > 90 | < 5 | > 90 | 100 | 0.562 |  |  |  |  |  | 
8 | B8 | < 35 |  | < 10 |  | < 30 | 11 | 2.53 |  |  |  |  | 18.4 | ≤ 30
9 | B9 | > 90 |  | > 90 | < 5 | > 90 | 100 | 0.753 |  | ~0.5 |  |  |  | 
10 | B10 | > 90 |  | > 90 |  | > 90 | 100 | 16.5 | > 90 | ~0.7 |  |  |  | 
11 | B11 | > 90 |  | > 90 |  | > 90 |  |  | > 90 |  |  |  |  | 
